Numbering of substitutions follows the chain as printed. Names and notes keep the numbering of the source.
Experiments:
[1] = target: fusion glycoprotein (F) of MPV A GFP (Tables 41 and 43) (metapneumovirus A); test: cell-based or functional assay
[2] = target: fusion glycoprotein (F) of RSV A GFP (Tables 41 and 42) (respiratory syncytial virus A); test: cell-based or functional assay
[3] = target: fusion glycoprotein (F) of RSV B GFP (Tables 41 and 42) (respiratory syncytial virus B); test: cell-based or functional assay
RSV-B F = target: T1, RSV-B F (RSV B); test: BLI
T1 construct: also called RSV F B

RSV F B N208S = target: T2, RSV F B N208S (RSV B); test: FACS, % binding to RSV F B variants
T2 construct: whole, on cells; also called mutant N208S

RSV F B, B Ref = target: T3, RSV F B, B Ref (RSV B); test: FACS, % binding to RSV F B variants
T3 construct: whole, on cells

RSV F B N208D = target: T4, RSV F B N208D (RSV B); test: FACS, % binding to RSV F B variants
T4 construct: whole, on cells

RSV F B K68N-N208S = target: T5, RSV F B K68N-N208S (RSV B); test: FACS, % binding to RSV F B variants
T5 construct: whole, on cells

RSV F B K68N-N201S = target: T6, RSV F B K68N-N201S (RSV B); test: FACS, % binding to RSV F B variants
T6 construct: whole, on cells

RSV F B N201S = target: T7, RSV F B N201S (RSV B); test: FACS, % binding to RSV F B variants
T7 construct: whole, on cells

RSV F B S443P = target: T8, RSV F B S443P (RSV B); test: FACS, % binding to RSV F B variants
T8 construct: whole, on cells; also called mutant S443P

RSV-A F = target: T9, RSV-A F (RSV A); test: BLI
T9 construct: also called RSV F A

[4] = target: RSV A fusion glycoprotein (F), virus of the neutralisation assays of Tables 54 and 57 (RSV A); test: cell-based or functional assay
[5] = target: fusion glycoprotein of the RSV used in the neutralization assay of Example 1 (respiratory syncytial virus (strain not …)); test: cell-based or functional assay
[6] = target: fusion glycoprotein of the MPV D280 used in the neutralization assay of Example 3 (metapneumovirus (strain )); test: cell-based or functional assay
[7] = target: RSV fusion glycoprotein (RSV-F) (respiratory syncytial virus); test: biolayer interferometry (BLI), rIgG1 with M428L/N434S
[8] = target: fusion glycoprotein (F) of the MPV (non-D280N) used in the GFP-based neutralization assay of Table 23 (metapneumovirus); test: cell-based or functional assay
[9] = target: fusion glycoprotein (F) of the RSV used in the GFP-based neutralization assay of Table 23 (respiratory syncytial virus); test: cell-based or functional assay
DS-Cav1 RSV F = target: T10, DS-Cav1 RSV F (respiratory syncytial virus); test: ELISA on DS-Cav1 RSV F
T10 construct: also called DC-VCav1

B1: MPK190-rIgG1-LS (antibody, V domains shown)
VH: EVQLVESGGGLVKPGGSLTLSCAASGFSISGYGMNWVRQAPGRGLEWVASISASSTYIYYADSMKGRFTISRDNGKTSLYLQMKSLRAEDTAVYYCARAPIEPPYFDLWGRGTLVTVSS
VL: QSVLTQPPSVSGAPGQRVTISCTGSNSNIGAGYDVHWYQHLPGKAPKVLIYGNNNRPSVVPDRFSGSNSGASASLAISGLQAEDEADYFCQSYDRRLSGPIFGGGTKLTVL
Q: For B1, which “IC50 (ng/ml), MPV A GFP neutralization; sample MPK190-rIgG1-LS/4B6” value [1] is on record?
A: 6.16 ng/mL

Q: What about the “IC50 (ng/ml), MPV A GFP neutralization; sample MPK190-rIgG1-LS/KYT” value [1] of the same binder?
A: 7.9 ng/mL

Q: What about the “IC50 (ng/ml), MPV A GFP neutralization; stressed sample MPK190-rIgG1-LS day 0” value [1] of the same binder?
A: 7.22 ng/mL

Q: What about the “IC50 (ng/ml), MPV A GFP neutralization; stressed sample MPK190-rIgG1-LS day 7” value [1] of the same binder?
A: 5.8 ng/mL

Q: What about the “IC50 (ng/ml), MPV A GFP neutralization; stressed sample MPK190-rIgG1-LS day 13” value [1] of the same binder?
A: 8.39 ng/mL

Q: What about the “IC50 (ng/ml), RSV A GFP neutralization; sample MPK190-rIgG1-LS/4B6” value [2] of the same binder?
A: 3.73 ng/mL

Q: And the “IC50 (ng/ml), RSV A GFP neutralization; sample MPK190-rIgG1-LS/KYT” value [2]?
A: 3.88 ng/mL

Q: And the “IC50 (ng/ml), RSV A GFP neutralization; stressed sample MPK190-rIgG1-LS day 0” value [2]?
A: 3.21 ng/mL

Q: What about the “IC50 (ng/ml), RSV A GFP neutralization; stressed sample MPK190-rIgG1-LS day 7” value [2] of the same binder?
A: 2.94 ng/mL

Q: And the “IC50 (ng/ml), RSV A GFP neutralization; stressed sample MPK190-rIgG1-LS day 12 (day 13 in Table 41)” value [2]?
A: 7.02 ng/mL

Q: And the “IC50 (ng/ml), RSV B GFP neutralization; sample MPK190-rIgG1-LS/4B6” value [3]?
A: 6.39 ng/mL

Q: What about the “IC50 (ng/ml), RSV B GFP neutralization; sample MPK190-rIgG1-LS/KYT” value [3] of the same binder?
A: 3.36 ng/mL

Q: And the “IC50 (ng/ml), RSV B GFP neutralization; stressed sample MPK190-rIgG1-LS day 0” value [3]?
A: 4.1 ng/mL

Q: What about the “IC50 (ng/ml), RSV B GFP neutralization; stressed sample MPK190-rIgG1-LS day 7” value [3] of the same binder?
A: 4.4 ng/mL

Q: And the “IC50 (ng/ml), RSV B GFP neutralization; stressed sample MPK190-rIgG1-LS day 12 (day 13 in Table 41)” value [3]?
A: 4.51 ng/mL

B2: MPK65-v2-v3.1 (antibody, V domains shown)
VH: QVPLVQSGAEVKKPGESLKISCKGSGYSFISYWIGWVRQMPGKGLEWMGVIYPFDADTKYSPSFQGHVTISADKSSNTAYVQWSSLKASDTAMYYCARFTFGIAVVTDDVSGEGQAFEIWGQGTMVTVSS
VL: EIVMMQSPATLSVSPGERATLSCRASQSVAGNLAWYQQRPGQAPRLLIYGASTRATGVPARFSGSGSETEFTLTISSLQSEDFAVYYCHQYSNWPQAFGQGTRLDIK
Q: With B2 as the binder, how does the Kd (RSV-B F) read?
A: 639 pM

Q: And the “% binding” value (RSV F B N208S)?
A: 0.029%

Q: What about the “% binding” value (RSV F B, B Ref) of the same binder?
A: 60.1%

Q: What about the “% binding” value (RSV F B N208D) of the same binder?
A: 0.14%

Q: And the “% binding” value (RSV F B K68N-N208S)?
A: 0.052%

Q: And the “% binding” value (RSV F B K68N-N201S)?
A: 22.6%

Q: What about the “% binding” value (RSV F B N201S) of the same binder?
A: 31.3%

Q: What about the “% binding” value (RSV F B S443P) of the same binder?
A: 30.6%

Q: And the Kd (RSV-A F)?
A: 192 pM

Q: And the “IC50, neutralization of RSVA” value [4]?
A: 5.4 ng/mL

B3: MPK158 (antibody, V domains shown)
VH: EVQLVESGGGLVKPGGSLRLSCAASGFSISGFYMIWIRQAPGKGLEWISDISASSSYIDYADSVKGRFTISRDNGQNTVHLLMNNLRADDTGVYYCAREQTPSPGPFDLWGQGTLVTVST
VL: QPVLTQPPSVSGAPGQRVTISCTGRSSNIGAGYDVHWYQHLPGTSPKLLIYRNSNRPSGVPDRFSGSTSGTSASLAITGLQADDEADYYCQAYDRILGGWAFGGGTKLTVL
Q: Which “RSV Neutralization - IC50” value [5] does the source give for B3 here?
A: 18.2 ng/mL

Q: And the “MPV D280 Neutralization - IC50” value [6]?
A: 6 ng/mL

B4: MPH12-v17 (VH-FRGL-D62E/VL-D25S) (antibody, V domains shown)
VH: QVQLVESGGGLVKPGGSLRLSCAASGFTFSGFYMKWIRQAPGKGLEWVSSISASGSYTNYAESVEGRFTISRDNAKNSLYLQMNSLRAEDTAVYYCARGDSYCGASACHGEFFHKWGQGTLVTVSS
VL: QSVLTQPPSVSGAPGQRVTISCTGSSSNIGADFDVHWYQQLPGTAPKLLIYGNINRPSGVPDRFSGSRSGTSAFLAITRLQAEDEADYYCQSYDRSLHYVFGAGTKVTVL
notes: also called MPH12 VH-FRGL-D62E / MPH12 VL-D25S
Q: With B4 as the binder, how does the Kd [7] read?
A: 390 pM

Q: And the “MPV IC50 (ng/mL), GFP-based in vitro neutralization” value (“MPV IC50 (ng/mL), GFP-based” below) [8]?
A: 30.4 ng/mL

Q: What about the “RSV IC 50 (ng/mL), GFP-based in vitro neutralization” value (shortened to “RSV IC 50 (ng/mL), GFP-based”) [9] of the same binder?
A: 44.9 ng/mL

B5: MPH12 VH / MPH12 VL-D25E (antibody, V domains shown)
VH: B4 VH with A23V, E62D, I70V, Y80F, Q82L, N84S
VL: B4 VL with S26E
notes: MPH12 variant; VH and VL only
Q: For B5, which EC50 (DS-Cav1 RSV F) is on record?
A: 43.8 ng/mL

B6: MPH12 VH-FRGL-D62E / MPH12 VL (antibody, V domains shown)
VH: B4 VH
VL: B4 VL with S26D
notes: MPH12 variant; VH and VL only
Q: Which EC50 (DS-Cav1 RSV F) does the source give for B6 here?
A: 51 ng/mL

B7: MPH12 VH / MPH12 VL-D25S (antibody, V domains shown)
VH: B4 VH with A23V, E62D, I70V, Y80F, Q82L, N84S
VL: B4 VL
notes: MPH12 variant; VH and VL only
Q: For B7, which EC50 (DS-Cav1 RSV F) is on record?
A: 23.5 ng/mL

B8: MPH12-v29 (VH-FRGL-D62E/VL-S26A) (antibody, V domains shown)
VH: B4 VH
VL: B4 VL with S26D, S27A
notes: also called MPH12 VH-FRGL-D62E / MPH12 VL-S26A
Q: For B8, which Kd [7] is on record?
A: 340 pM

Q: What about the “MPV IC50 (ng/mL), GFP-based” value [8] of the same binder?
A: 35.2 ng/mL

Q: And the “RSV IC 50 (ng/mL), GFP-based” value [9]?
A: 60.3 ng/mL

B9: MPH12-v34 (VH-FRGL-S63A/VL-FRGL-D25S) (antibody, V domains shown)
VH: B4 VH with E62D, S63A
VL: B4 VL with R68K, F74S, R79G, A103T
Q: For B9, which Kd [7] is on record?
A: 500 pM

Q: What about the “MPV IC50 (ng/mL), GFP-based” value [8] of the same binder?
A: 31.9 ng/mL

Q: And the “RSV IC 50 (ng/mL), GFP-based” value [9]?
A: 48.6 ng/mL

From US20260028391A1 (HUMABS BIOMED, published 2026)
